From US20020177126A1 (published 2002) come the findings set out here.

Experiment [1] addresses F protein (RSV F glycoprotein immobilised on the BIAcore sensor chip) (respiratory syncytial virus (RSV), UniProt P03420 26-524). Put plainly: BIAcore, immobilised F protein.
Experiment [2] concerns the target T1, F protein of wild type RSV A/Long (respiratory syncytial virus, strain …, UniProt P12568 26-574). Put plainly: cell-based or functional assay.
Experiment [3] deals with T1, F protein of wild type RSV A/Long. Put plainly: cell-based or functional assay. This is another data set of the same source.
For experiment [4], the target named is T2, F protein of MARM #13 (selected with A4B4 from MARM B9) (respiratory syncytial virus, strain …, UniProt P12568 26-574).
T2 construct: whole, on cells
Put plainly: IFA on MARM-infected HEp-2 cells.

The target in experiment [5] is T3, F protein of RSV A/Long MARM #9 (selected with A4B4) (respiratory syncytial virus, strain …, UniProt P12568 26-574).
T3 construct: whole, on cells
Description: IFA on MARM-infected HEp-2 cells.

The target of experiment [6] is T4, F protein of RSV A/Long MARM #6 (selected with A4B4) (respiratory syncytial virus, strain …, UniProt P12568 26-574).
T4 construct: whole, on cells
Description: IFA on MARM-infected HEp-2 cells.

For experiment [7], the target named is T5, F protein of RSV A/Long MARM #11 (selected with A4B4) (respiratory syncytial virus, strain …, UniProt P12568 26-574).
T5 construct: whole, on cells
Put plainly: IFA on MARM-infected HEp-2 cells.

In experiment [8] the target is T6, F protein of RSV A/Long MARM #10 (selected with A4B4) (respiratory syncytial virus, strain …, UniProt P12568 26-574).
T6 construct: whole, on cells
Put plainly: IFA on MARM-infected HEp-2 cells.

In a further experiment the target is Bac-F (UniProt P03420 26-524). Put plainly: BIAcore, Mab vs Bac-F, 1:1.

Where “and” joins values, the source holds several entries; their conditions need not be identical. Identical values can stand only once.

B1: 6H8 (Fab) (Fab, V domains shown)
VH: QVTLRESGPALVKPTQTLTLTCTFSGFSLSTAGMSVGWIRQPPGKALEWLADIWWDDKKDYNPSLKSRLTISKDTSKNQVVLKVTNMDPADTATYYCARDMITNFYFDVWGAGTTVTVSS
VL: DIQMTQSPSTLSASVGDRVTITCSASSSVGYMHWYQQKPGKAPKLLIYDTFKLTSGVPSRFSGSGSGTEFTLTISSLQPDDFATYYCFQGSGYPFTFGGGTKLEIK
Turning to B1, in experiment [1], the koff was 0.000178 s⁻¹ and 0.000473 s⁻¹; the kon was 314000 M⁻¹ s⁻¹ and 444000 M⁻¹ s⁻¹.

B2: P11d4 (Fab) (Fab, V domains shown)
VH: QVTLRESGPALVKPTQTLTLTCTFSGFSLSTPGMSVGWIRQPPGKALEWLADIWWDGKKHYNPSLKDRLTISKDTSKNQVVLKVTNMDPADTATYYCARDMIFNWYFDVWGQGTTVTVSS
VL: DIQMTQSPSTLSASVGDRVTITCSPSSRVGYMHWYQQKPGKAPKLLIYDTMRLASGVPSRFSGSGSGTEFTLTISSLQPDDFATYYCFQGSGYPFTFGGGTKVEIK
For B2, in [1], the off-rate (koff) stood at 0.000717 s⁻¹; the kon was 570000 M⁻¹ s⁻¹ and 572000 M⁻¹ s⁻¹. For the same molecule, the “EC50, RSV (Long) microneutralization” value in [2] is above 20 nM. For the same molecule, in [3], the “Mean IC50 (Control), RSV microneutralization” value (“Mean IC50 (Control)” for short) is above 1 µg/mL and the “Mean IC50 (Curve), RSV microneutralization” value (“Mean IC50 (Curve)” below) was above 1 µg/mL.

B3: A12a6 (Fab) (Fab, V domains shown)
VH: QVTLRESGPALVKPTQTLTLTCTFSGFSLSTAGMSVGWIRQPPGKALEWLADIWWDGKKDYNPSLKDRLTISKDTSKNQVVLKVTNMDPADTATYYCARDMIFNFYFDVWGQGTTVTVSS
VL: DIQMTQSPSTLSASVGDRVTITCSASSRVGYMHWYQQKPGKAPKLLIYDTFKLSSGVPSRFSGSGSGTEFTLTISSLQPDDFATYYCFQGSGYPFTFGGGTKVEIK
For the molecule B3, in [1], the off-rate constant (koff) amounted to 0.00023 s⁻¹ and the on-rate constant (kon) was determined as 743000 M⁻¹ s⁻¹. Besides, in [2], the “EC50, RSV (Long) microneutralization” value was 0.62 nM. In experiment [3], the “Fold Difference (Control IC50)” value amounted to 17 fold; the “Fold Difference (Curve IC50)” value came out at 16 fold; the “Mean IC50 (Control)” value was 0.031 µg/mL; the “Mean IC50 (Curve)” value was determined as 0.0287 µg/mL.

B4: P12f2 (Fab) (Fab, V domains shown)
VH: QVTLRESGPALVKPTQTLTLTCTFSGFSLSTPGMSVGWIRQPPGKALEWLADIWWDDKKHYNPSLKDRLTISKDTSKNQVVLKVTNMDPADTATYYCARDMIFNFYFDVWGAGTTVTVSS
VL: DIQMTQSPSTLSASVGDRVTITCSLSSRVGYMHWYQQKPGKAPKLLIYDTFYLSSGVPSRFSGSGSGTEFTLTISSLQPDDFATYYCFQGSGYPFTFGGGTKVEIK
notes: also called Pf12; P1212
In experiment [1], B4 registered an off-rate (koff) of 0.000282 s⁻¹ and a kon of 663000 M⁻¹ s⁻¹. In addition, the “EC50, RSV (Long) microneutralization” value in [2] is 0.65 nM. Besides, in [3], the “Fold Difference (Control IC50)” value was determined as 16 fold; the “Fold Difference (Curve IC50)” value stood at 11 fold; the “Mean IC50 (Control)” value was 0.0326 µg/mL; the “Mean IC50 (Curve)” value was 0.0407 µg/mL.

B5: A13a11 (Fab) (Fab, V domains shown)
VH: QVTLRESGPALVKPTQTLTLTCTFSGFSLSTAGMSVGWIRQPPGKALEWLADIWWDDKKHYNPSLKDRLTISKDTSKNQVVLKVTNMDPADTATYYCARDMIFNWYFDVWGAGTTVTVSS
VL: DIQMTQSPSTLSASVGDRVTITCSPSSRVGYMHWYQQKPGKAPKLLIYDTYRHSSGVPSRFSGSGSGTEFTLTISSLQPDDFATYYCFQGSGYPFTFGGGTKLEIK
With B5, in experiment [1], the koff is 0.00025 s⁻¹ and the kon turned out to be 735000 M⁻¹ s⁻¹.

B6: A13c4 (Fab) (Fab, V domains shown)
VH: QVTLRESGPALVKPTQTLTLTCTFSGFSLSTAGMSVGWIRQPPGKALEWLADIWWDGKKSYNPSLKDRLTISKDTSKNQVVLKVTNMDPADTATYYCARDMIFNFYFDVWGQGTTVTVSS
VL: DIQMTQSPSTLSASVGDRVTITCSLSSRVGYMHWYQQKPGKAPKLLIYDTMYQSSGVPSRFSGSGSGTEFTLTISSLQPDDFATYYCFQGSGYPFTFGGGTKVEIK
For B6, in [1], the off-rate (koff) worked out at 0.00028 s⁻¹; the kon is 781000 M⁻¹ s⁻¹ and 735000 M⁻¹ s⁻¹. Besides, the “EC50, RSV (Long) microneutralization” value in experiment [2] was found to be 0.52 nM. For the same molecule, in [3], the “Fold Difference (Control IC50)” value was determined as 21 fold; the “Fold Difference (Curve IC50)” value worked out at 17 fold; the “Mean IC50 (Control)” value stood at 0.0258 µg/mL; the “Mean IC50 (Curve)” value was found to be 0.0264 µg/mL.

B7: P12f4 (Fab) (Fab, V domains shown)
VH: QVTLRESGPALVKPTQTLTLTCTFSGFSLSTPGMSVGWIRQPPGKALEWLADIWWDGKKHYNPSLKDRLTISKDTSKNQVVLKVTNMDPADTATYYCARDMIFNFYFDVWGQGTTVTVSS
VL: DIQMTQSPSTLSASVGDRVTITCSLSSRVGYMHWYQQKPGKAPKLLIYDTRGLPSGVPSRFSGSGSGTEFTLTISSLQPDDFATYYCFQGSGYPFTFGGGTKVEIK
In [1], B7 displayed a koff of 0.000299 s⁻¹ and an on-rate constant (kon) of 527000 M⁻¹ s⁻¹. Besides, the “EC50, RSV (Long) microneutralization” value in experiment [2] was 0.7 nM. Besides, in experiment [3], the “Fold Difference (Control IC50)” value worked out at 15 fold; the “Fold Difference (Curve IC50)” value worked out at 10 fold; the “Mean IC50 (Control)” value is 0.0351 µg/mL; the “Mean IC50 (Curve)” value worked out at 0.0464 µg/mL.

B8: A4B4 (monoclonal antibody) (antibody, V domains shown)
VH: QVTLRESGPALVKPTQTLTLTCTFSGFSLSTAGMSVGWIRQPPGKALEWLADIWWDDKKHYNPSLKDRLTISKDTSKNQVVLKVTNMDPADTATYYCARDMIFNFYFDVWGQGTTVTVSS
VL: DIQMTQSPSTLSASVGDRVTITCSASSRVGYMHWYQQKPGKAPKLLIYDTFFLDSGVPSRFSGSGSGTEFTLTISSLQPDDFATYYCFQGSGYPFTFGGGTKLEIK
notes: also called A4B4/A4B4 (HC/LC)
As to B8, the binding result in experiment [4] was “no binding (tested: 250 ng/ml)”. Further, the binding result in experiment [5] is reported as “no binding (tested: 250 ng/ml)”. Moreover, the binding result in experiment [6] is listed as “no binding (tested: 250 ng/ml)”. Moreover, in experiment [7], the binding result is “no binding (tested: 250 ng/ml)”. In addition, the binding result in [8] was “no binding (tested: 250 ng/ml)”. In addition, in the experiment with Bac-F, the Kd is 0.02 nM, the dissociation rate constant (koff) was determined as 1.06e-05 s⁻¹, the on-rate (kon) stood at 434000 M⁻¹ s⁻¹ and the “number in parentheses after KD (fold vs SYNAGIS)” value amounted to 195 fold. In addition, in experiment [3], the “Fold Difference (Control IC50)” value came out at 35 fold; the “Fold Difference (Curve IC50)” value stood at 27 fold; the “Mean IC50 (Control)” value came to 0.0154 µg/mL; the “Mean IC50 (Curve)” value worked out at 0.0171 µg/mL.

B9: L1-7E5 (Fab) (Fab, V domains shown)
VH: QVTLRESGPALVKPTQTLTLTCTFSGFSLSTAGMSVGWIRQPPGKALEWLADIWWDDKKDYNPSLKSRLTISKDTSKNQVVLKVTNMDPADTATYYCARDMITNFYFDVWGAGTTVTVSS
VL: DIQMTQSPSTLSASVGDRVTITCSASSRVGYMHWYQQKPGKAPKLLIYDTFKLASGVPSRFSGSGSGTEFTLTISSLQPDDFATYYCFQGSGYPFTFGGGTKLEIK
Take B9: the dissociation rate constant (koff) in [1] was 0.000192 s⁻¹ and 0.000331 s⁻¹ and 0.000229 s⁻¹.

B10: M3H9 (Fab) (Fab, V domains shown)
VH: QVTLRESGPALVKPTQTLTLTCTFSGFSLSTAGMSVGWIRQPPGKALEWLADIWWDDKKDYNPSLKSRLTISKDTSKNQVVLKVTNMDPADTATYYCARDMIFNWYFDVWGAGTTVTVSS
VL: DIQMTQSPSTLSASVGDRVTITCSASSSVGYMHWYQQKPGKAPKLLIYDTYKQTSGVPSRFSGSGSGTEFTLTISSLQPDDFATYYCFQGSGYPFTFGGGTKLEIK
In experiment [1], B10 came in with a dissociation rate constant (koff) of 0.000338 s⁻¹ and a kon of 605000 M⁻¹ s⁻¹.

B11: H3-3F4 (Fab) (Fab, V domains shown)
VH: QVTLRESGPALVKPTQTLTLTCTFSGFSLSTAGMSVGWIRQPPGKALEWLADIWWDDKKDYNPSLKSRLTISKDTSKNQVVLKVTNMDPADTATYYCARDMIFNWYFDVWGAGTTVTVSS
VL: DIQMTQSPSTLSASVGDRVTITCSASSSVGYMHWYQQKPGKAPKLLIYDTFKLASGVPSRFSGSGSGTEFTLTISSLQPDDFATYYCFQGSGYPFTFGGGTKLEIK
notes: also called 113-3F4
As to B11, the koff in experiment [1] is 0.000445 s⁻¹ and 0.000402 s⁻¹.

B12: DG (Fab) (Fab, V domains shown)
VH: QVTLRESGPALVKPTQTLTLTCTFSGFSLSTAGMSVGWIRQPPGKALEWLADIWWDDKKDYNPSLKSRLTISKDTSKNQVVLKVTNMDPADTATYYCARDMITNFYFDVWGAGTTVTVSS
VL: DIQMTQSPSTLSASVGDRVTITCSASSSVGYMHWYQQKPGKAPKLLIYDTFKLASGVPSRFSGSGSGTEFTLTISSLQPDDFATYYCFQGSGYPFTFGGGTKLEIK
As to B12, the koff in experiment [1] is 0.000167 s⁻¹ and 0.000444 s⁻¹.

B13: Y10H6 (Fab) (Fab, V domains shown)
VH: QVTLRESGPALVKPTQTLTLTCTFSGFSLSTAGMSVGWIRQPPGKALEWLADIWWDDKKDYNPSLKSRLTISKDTSKNQVVLKVTNMDPADTATYYCARDMIFNWYFDVWGAGTTVTVSS
VL: DIQMTQSPSTLSASVGDRVTITCSASSSVGYMHWYQQKPGKAPKLLIYDTRYLSSGVPSRFSGSGSGTEFTLTISSLQPDDFATYYCFQGSGYPFTFGGGTKLEIK
In [1], B13 displayed an off-rate (koff) of 0.000462 s⁻¹ and an on-rate constant (kon) of 757000 M⁻¹ s⁻¹.

B14: AFFF (monoclonal antibody) (antibody, V domains shown)
VH: QVTLRESGPALVKPTQTLTLTCTFSGFSLSTAGMSVGWIRQPPGKALEWLADIWWDDKKDYNPSLKSRLTISKDTSKNQVVLKVTNMDPADTATYYCARSMITNFYFDVWGAGTTVTVSS
VL: DIQMTQSPSTLSASVGDRVTITCSASSSVGYMHWYQQKPGKAPKLLIYDTFKLASGVPSRFSGSGSGTEFTLTISSLQPDDFATYYCFQFSGYPFTFGGGTKLEIK
As for B14, in experiment [1], the koff is 0.000274 s⁻¹ and 0.000266 s⁻¹ and 0.000206 s⁻¹; the kon is 108000 M⁻¹ s⁻¹ and 96000 M⁻¹ s⁻¹ and 124000 M⁻¹ s⁻¹.
